Numbering of substitutions follows the chain as printed.

The record followed here is US20220356229A1 (published 2022).

First the molecules themselves.
B1: antibody 368 (antibody, V domains shown)
V domain 1: QITLKESGPTLVKPTETLTLTCAFSGFSLTKTGEAAGWIRQAPGRALEWVTVIFWDDDKRYSPSLQNRLTVTKDTSKNVVVLTMTNVDPVDTATYFCWAMGGPGKEFFGQGTRVAVSS
V domain 2: QSVLTQPPSVSGAPGQRVTVSCTGTSSSIGPYSDVHWYQHIPGKAPRLLIFGTSNRPSGVPARFSGSKSGSSASLVIAGLQAEDEADYYCQSYDSSLGEIYVFGTGTTVTVL
B2: antibody 366 (antibody, V domains shown)
VH: QVQLVESGGGVVQPGRSLRLSCAASGFTFSSYAMHWVRQAPGKGLEWVAVISYDGSNKYYADSVKGRFTISRDNSKNTLYLQMNSLRAEDTAVYYCARGLVGYNWFDPWGQGTLVTVSS
VL: DIQMTQSPSSVSASVGDRVTITCRASQGISSWLAWYQQKPGKAPKLLIYAASSLQSGVPSRFSGSGSGTDFTLTISSLQPEDFATYYCQQANSFTFGPGTKVDIK
B3: antibody 367 (antibody, V domains shown)
VH: QVQLVQSGAEVKKPGASVKVSCKASGYTFTGYYIHWVRQAPGQGLEWMGWINPNSGGTIYAQKFQGRVTMTRDTSISTAYMELSRLTSDDTAVYSCAREPYYDILTGYYAPRRYFDYWGQGTLVTVSS
VL: QSALTQPASVSGSPGQSITISCTGTSSDVGSYNYVSWYLQHPGKAPKLMIYDVSNRPSGVSNRFSGSKSGNTASLTISGLQAEDEADFYCSSYTSRSTYVFGTGTKVTVL
B4: antibody 379 (antibody, V domains shown)
VH: QVQLQESGPGLVKPSQTLSLTCTVSGGSISSGGYYWSWIRQHPGKGLEWIGYIYYSGSTYYNPSLKSRVTISVDTSKNQFSLKLSSVTAADTAVYYCARGPLDFWSGYFRLRYFDSWGQGTLVTVSS
VL: B3 VL with S31G, L39Q, S54T, F88Y, R96S, Y99C
B5: antibody 351 (antibody, V domains shown)
VH: HVQLVESGGGVVQPGRSLRLSCAASGFISRNYGMEWVRQAPGQGLEWVAGIWYDGSKKYYADSVKGRFTISRDTSKNTLFLQMDSLRAEDTAVFYCATATKTFCGGDCPPGGMDVWGQGTTVTVST
VL: SYVLTQPPSVSVAPGKTAWITCVGNNIESESVHWYQQRPGQAPVLVIYYDSDRPSGIPERFFGSNSGNTATLTISRVEAGDEADYYCQVWDSNSDLMVFGGGTKLTVL
B6: antibody 363 (antibody, V domains shown)
VH: EVQLLESGGGLVQPGGSLRLSCAASGFTFSTYAMSWVRQAPGKGLEWVSAISGSGGSTYYADSVKGRFTISRDNSKNTLYLQMNSLRAEDTAVYYCASGYSPDYWGQGTLVTVSS
VL: not shown
B7: antibody 372 (antibody, V domains shown)
VH: QVQLVESGGGVVQPGRSLRLSCAASGFTFSSYAMHWVRQAPGKGLEWVAVISYDGSNKYYADSVKGRFTISRDNSKNTLYLQMNSLRAEDTAVYYCARDLGTSALLWFGELFLNYGMDVWGQGTTVTVSS
VL: QSALTQPRSVSGSPGQSVTISCTGTSSDVGGYNYVSWYQQHPGKAPKLMIYDVSKRPSGVPDRFSGSKSGNTASLTISGLQAEDEADYYCCSYAGSPILVFGGGTKLTVL
B8: antibody 380 (antibody, V domains shown)
VH: QVQLVESGGGVVQPGRSLRLSCAASGFTLKNYGMHWVRQAPGKGLEWVIVLSFDGSDEYKADSVRGRFTVSRDNSKNTLFLQMNSLRPDDTAVYYCAREQPTMIEGGRGPFDIWGQGTMVTVSS
VL: EVVMTQSPATLSVSPGDRATLSCRASQGVNSNLAWYQQKPGQAPRLLIYAASTRATGIPARFSASGSGTHFTLTISSLQSEDFAVYYCLQYNNWPPWTFGQGTKLEIK
B9: anti-SARS-CoV-2 antibody 1149 (antibody, V domains shown)
VH: QVQLVQSGAEVKKPGASVKVSCKASGYTFASYDINWVRQATGQGPEWMGWMIPNIGNTGYAQKFQGRVTMTRNTSISTAYMELSSLTSEDTAVYYCARVSRLFNDFGLRHEAPVDFWGQGTRVTVSS
VL: QSVLTQPPSVSGAPGQRVTISCTGSSSNIGAGYDVHWYQQLPGTAPKLLIYGYSSRPSGVPDRFSGSKSGTSASLAITGLQAEDEADYYCQSYDSSLSVLFGGGTKLTVLG
B10: anti-SARS-CoV-2 antibody 923 (antibody, V domains shown)
VH: EVQLVESGGGVVRPGGSLRLSCAASGFIFDDYDMTWVRQAPGKGLEWVSGISWNGGNTGYADSVKGRFTISRDNAKNSLYLQMNSLRAEDTALYHCAVIMSPIPRYSGYDWAGGAFDIWGQGTMVTVSS
VL: SSELTQDPAVSVALGQTVRITCQGDSLRSYYASWYQQKPGQVPILVIYDKNNRPSGIPDRFSGSSSGNTASLTITGAQAEDEADYYCNSRDSSGNAVVFGGGTKLTVLG
B11: anti-SARS-CoV-2 antibody 1075 (antibody, V domains shown)
VH: QVQLVQSGAEVKKPGASVKVSCKVSGYTLIELSMHWVRQAPGKGLEWMGGFDPEDGETIYAQKFQGRVTMTEDTSTDTAYMELSSLRSEDTAVYYCATEWAYYGSGSYLGYWGQGTLVTVSS
VL: EIVMTQSPATLSVSPGERATLSCRASQSVSSNLAWFQQKPGQAPRLLIYGASTRVTVIPARFSGSGSGTEFTLTISSLQSEDFAVYYCQQYNNWPRTFGQGTKVEIKR
B12: anti-SARS-CoV-2 antibody 970 (antibody, V domains shown)
VH: EVQLVESGGGLVQPGGSLRLSCAASGFTFSSYWMSWVRQAPGKGLEWVANINKDGSEKYYVDSVKGRFTISRDNAKNSLYLQMNSLRAEDTAVYFCARDYRYFDWLLSQIDLEIDYFDYWGQGTLVTVSS
VL: not shown
B13: anti-SARS-CoV-2 antibody 1015 (antibody, V domains shown)
VH: EVQLVESGGGLVQPGGSLRLSCAASGFTFSSYWMHWVRQAPGKGLVWVSHINSDGSSTSYADSVKGRFTISRDNAKNTLYLQMNSLRAEDTAVYYCARGLRYFDLDVWGQGTTVTVSS
VL: QSVLTQPPSVSEAPRQRVTISCSGSSSNIGNNAVNWYQQLPGKAPKLLIFYDDLLPSGVSDRFSGSKSGTSASLAISGLQSEDEADYYCAAWDDSLNGGVFGGGTKLTVLG
B14: anti-SARS-CoV-2 antibody 1139 (antibody, V domains shown)
VH: QVQLVQSGAEVKKPGASVKVSCKASGYTFSSYEINWVRQATGQGLEWMGRMTLNSGNTGYAQNFQGRVTMTRDTSISTAYMELSGLRSEDTAVYYCARMRSGWPTHGRPDDYWGQGTLVTVSS
VL: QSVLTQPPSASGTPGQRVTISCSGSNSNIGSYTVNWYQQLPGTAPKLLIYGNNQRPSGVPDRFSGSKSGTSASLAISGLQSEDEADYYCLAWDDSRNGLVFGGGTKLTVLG
B15: anti-SARS-CoV-2 antibody 851 (antibody, V domains shown)
VH: QITLKESGPTLVKPTQTLTLTCTFSGFSLSTNGVGMGWIRQPPGKALEWLALIYWDDDQFYSPSLKSRLTITRDTSKNQVVLTMTNMDPVDTATYYCAQAFYESFGFYSWGQGTLVTVSS
VL: NFMLTQPHSVSESPGKTVIISCTRSIGSIASNYVQWYQQRPGSAPTIVVFEDNERPSGVPDRFSGSIDRSSNSASLTISGLKTEDEADYYCQSYDGSSELVFGGGTKLTVLG
B16: anti-SARS-CoV-2 antibody 1037 (antibody, V domains shown)
VH: QITLKESGPTLVKPTQTLTLTCTFSGFSLSTSGVGVGWIRQPPGKALEWLALIYWDDDKRYSPSLKSRLTITKDTSKNQVVLTMTNMDPVDTATYYCAHHTITRINDYWGQGTLVTVSS
VL: QSALTQPASVSGSPGQSITISCTATSSDVGAYNYVSWYQQHPGKAPKLMIYDVSKRPSGVSNRFSGSKSGNTASLTISGLQAEDEADYYCSSYTSSSTVFGGGTKLTVLG
B17: antibody 320 (antibody, V domains shown)
VH: QVQLVQSGAEVKKPGASVKVSCKASGYTFTSYGISWVRQAPGQGLEWMGWISAYNGNTNYAQKLQGRVTMTTDTSTRTAYMELRSLRSDDTAVYYCARVGCYYDSSGYSCAENFQHWGQGTLVTVSS
VL: QSVLTQPPSVSGAPGQRVTISCTGSSSNIGAGYDVHWYQQLPGTAPKLLIYGNSNRPSGVPDRFSGSKSGTSASLAITGLQAEDEADYYCQSYDSSLSALFGGGTKLTVL
B18: antibody 316 (antibody, V domains shown)
VH: QVHLVESGGGVVQPGRSLRLSCAASGFTLTAYAMHWVRQAPGKRLEWVALISYDGSVKKYADSVKGRITVSGDTSTNTLHLQMNSLRADDTAVYYCVRGGVSGPNSFDLWGQGTMVTVSS
VL: DVVMTQSPLSLPVTLGQPASMSCRSSQSLEYSDGNTYVNWFHQRPGQSPRRLIYKVSYRDSGVPDRFSGSGSGTDFTLQISRVEAEDVGIYYCMQGTHWPVTFGQGTKVEIK
B19: antibody 317 (antibody, V domains shown)
VH: QVQLVQSGAEVKKPGASVKVSCKVSGYTLTELSMHWVRQAPGKGLEWMGGFDPEDGETIYAQKFQGRVTMTEDTSTDTAYMELSSLRSEDTAVYYCASSPAAAGTSQYYYYYGMDVWGQGTTVTVSS
VL: not shown
B20: antibody 323 (antibody, V domains shown)
VH: QVQLVQSGAEVKKPGASVKVSCKVSGYTLTELSMHWVRQAPGKGLEWMGGFDPEDGETIYAQKFQGRVTMTEDTSTDTAYMELSSLRSEDTAVYYCATSTIFAPGGWFDPWGQGTLVTVSS
VL: QSALTQPASVSGSPGQSITISCTGTSSDVGSYNLVSWYQQHPGKAPKLMIYEVSKRPSGVSNRFSGSKSGNTASLTISGLQAEDEADYYCCSYAGSTHYVFGTGTKVTVL

The first test has as its target SARS-CoV Spike protein (SARS-CoV, UniProt P59594 14-1190).
Assay: not given
As for B1, the “bead binding signal (median fluorescence, fold over isotype control)” value was 1.09 fold over isotype control. Regarding B2, the “bead binding signal (median fluorescence, fold over isotype control)” value was 1.23 fold over isotype control. Still for that read-out and setting: under B3 stands 1.08 fold over isotype control. Still for that read-out and setting: in the case of B4 it was 5.9 fold over isotype control.

Turning to B5, the “bead binding signal (median fluorescence, fold over isotype control)” value was found to be 1.08 fold over isotype control. The same measure, in the same setting: under B6 stands 1.09 fold over isotype control. The same measure, in the same setting: under B7 stands 1.08 fold over isotype control; under B8, 1.21 fold over isotype control.

Another test concerns the target SARS-CoV-2 Spike (S) protein, wild type (SARS-CoV-2, UniProt P0DTC2 14-1208). The test can be described thus: HT-SPR Carterra LSA; mAb coupled to chip, Spike in solution; 1:1 Langmuir fit.
For orientation: Kd means the concentration at which binding is half-saturated. The term koff denotes the rate constant with which the complex falls apart. High values mean a short-lived complex, low ones a long-lived complex. For orientation: kon means the second-order rate constant of association. Low readings indicate slow association, high ones fast association. For B9, the equilibrium dissociation constant (Kd) was ≤ 0.0151 nM, the koff is ≤ 1e-05 s⁻¹ and the kon was determined as 664000 M⁻¹ s⁻¹. In the case of B10, the Kd is ≤ 0.0161 nM, the koff was ≤ 1e-05 s⁻¹ and the on-rate constant (kon) turned out to be 653000 M⁻¹ s⁻¹. B11: the Kd is 0.717 nM, the koff is 3.04e-05 s⁻¹ and the kon worked out at 227000 M⁻¹ s⁻¹. For B12, in that order: 0.482 nM, 0.00034 s⁻¹ and 706000 M⁻¹ s⁻¹. For B13, in that order: 0.0439 nM, 2.19e-05 s⁻¹ and 500000 M⁻¹ s⁻¹. In the case of B14, the Kd came out at 0.0433 nM, the off-rate constant (koff) stood at 5.31e-05 s⁻¹ and the kon worked out at 1.22e+06 M⁻¹ s⁻¹. For B15, in that order: ≤ 1.44 nM, ≤ 1e-05 s⁻¹ and 6960 M⁻¹ s⁻¹. The molecule B16 displayed a dissociation constant (Kd) of 0.0319 nM, a dissociation rate constant (koff) of 1.36e-05 s⁻¹ and a kon of 443000 M⁻¹ s⁻¹.

The target of the next test is SARS-CoV-2 full length Spike protein, wild type (SARS-CoV-2, UniProt P0DTC2 14-1208).
Assay: not given
As for B17, the “bead binding signal (fold over isotype)” value stood at 1200 fold over isotype.

B18: the “bead binding signal (fold over isotype)” value amounted to 442 fold over isotype. As to B19, the “bead binding signal (fold over isotype)” value was found to be 890 fold over isotype. The same measure, in the same setting: in the case of B20 it was 994 fold over isotype.
